Measurements: the nanobody polyreactivity screen of Harvey et al. (2022)

Test: yeast display, Sf9 membrane polyspecificity reagent, FACS + sequencing; frameworks hold sequencing errors
Method in brief: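 Galactose-induced (36–48 hours) yeast carrying a synthetic nanobody display library were exposed to 10% biotinylated, detergent-solubilized Sf9 membrane reagent at 4 °C for 1 hour. FACS followed streptavidin microbead enrichment, using low and high (top ~1%) gates for expression (anti-HA) and reagent binding (streptavidin). Colony PCR, MiSeq 2 × 250 sequencing and CDR-length filtering followed. Labels for polyreactivity reflect the gate of origin.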

Sequence | polyreactivity (PSR sort gate)
QVQLVESGGGLVQAGGSLRLSCAASGFIFDDNAMGWNRQAHGKERELVAAITSGGGSTYYADSVKGRFTISRDNAKNTVYLQLNSLKPEDTAVYYCNAVPSQHDEFDYWGQGTQVSVSS | low polyreactivity
QVQLVESGGCLVQAGGSLRLSCAASGLIFYTYAMGWYRQAPGKERELVASISSGGDSTYYADSVKGRFTISRDNAKNTVYLQMNSLKPEDTAVYYCNADYYYSYPYTYYYWGQGTQVTVSS | low polyreactivity
QVQLVESGGGLVQAGGSLRLSCAASGSIFGYYAMGWYRQAPGKERELVAAITYSGGNTNYADSVKGRFTISRDNAKNTVYLQMNSLKPEDTAVYYCAARKNYQAVYARRTRYYYWGQGTQVTVSS | high polyreactivity
QVLLVESGGGLVQAGGSLRLSCAAYGRTFYGYAMGWYRQAPGKERELVATISSGDSTNYADSVKGRFTISRDNAKNTVYLQMNSLKPEDTAVYYCAAQGGDGVLALYYYWGQGTQVTVSS | low polyreactivity
QVQLVESGGGLVQAGGSLRISCAASGSIFSYYAMGWYRQAPGTERELVAAITRGGTTYYADSVKGRFTISRDNAKNTVYLQMNSLKPEDTAVYYCAVYYYSGTAGYRYGYWGQGTQVTVSS | high polyreactivity
QVQLVESGGGLVQAGGSLRLSCAASGNILFNNSMGWYRQAPGKERELVAAISRSAGSTYYADSVKGSFTISRDNEKNTVYLQMNRLKPEDTAVYYCAAQYFRRSGYWGQGTQVTVSS | high polyreactivity
QVQLVESGGGLVQAGGSLRLSCAASGRIFGRYAMGWYRQAPGQERELVAGISARGGSTYYADSVKGRFTISRDNAKNTVYLQMNSLKPDDTAVYYCAAYAGFSDQAGYFYWGQGTQVTVSS | high polyreactivity
QVQLVDSGGGLVQAGGSLRLSCAASGRTFVSYAMGWYRQAPGKERELVAAISRSGGRTYYADSVKGRFTISRDNAMNSVYLQMNCLKPEDTAVYYCATKQYGTLARYDYWGQGSQVTVSS | high polyreactivity
QVQLVESGGGFVQAGGSLRLSCAASGRIFVVNAMLWYRPAPAKESEFVAAISRSGGSTYYADSVKGRFTISRDKATNTVYLQMNSLKREDTAVYYCAADIVGFRTSGTYEYWGHGTQVTVSS | low polyreactivity
QVQLVESGGGLVQAGGRLRLSCAASGRNFEPYAMGWYRQAPGKERELVAAISRSGGRTYYADSVKGRFTISRDNAKNTVYLQMNSLKPEDTAVYYCAAVGVYWYVYPHEYDYWGQGTQVTVSS | high polyreactivity
QVQLVESGGGLVQAGGSLRLSCAASGRIFYINAMGWYRQAPGKERELVASITGSGGRTYYADSVKGRFTISRDNAKNTVYLQMNSLKPEDTAVYYCNADLYVGYLYYLYDYWGQGTQVTVSS | low polyreactivity
QVQLVESGGGLVQAGSSLRLSCAASGSIFPVYAMGWYRQSPGKERELVAAISCIGGGTYYADSVKGRFTISRDNAKNTVYLQMNSLKPEDTAVYYCAAVPYTSEYDYWGQGTQVTVSS | high polyreactivity
QVQLVESGGGLVQAGGSLRLSCAASGLTFYSYAMGWYRQAPGKERELVAAITWSGGGTYYADSVKGRFTISRDNAKNTVYLQMNSLKPEDTAVYYCAALSYNGVRYYYWGQGTQVTVSS | high polyreactivity
QVQLVESGGGLVQAGGSLRLSCAASGRTFWVYAMGWYRQAPGKERELVAGISSGASTYYADSVKGRFTISRDNAKNTVYLQMNSLKPEDTAVYYCAAPYYRLTGWSRYDYWGQGTQVTVSS | high polyreactivity
QVQLVESGGGLVQAGCSLLLSCAASGRSFTHNAMGWYRPAHGPERELGAAITSRGRTTYADSVKGRFTISRDNAKNTVYVQMNSLKPEDTAVYYCATSVWFPITSYDYWGQGTQVTVSS | low polyreactivity
QVQLVESGGGLVQAGGSLRLSCAASGIIFAFYAMGWYRQAPGKERELVATISKSGGRTYYADSVKGRFTISRDNAKNTVYLQMNSLKPEDTAVYYCAARIQYAFGADYYWGQGTQVTVSS | low polyreactivity
